Patent publication US6734169B2, “Apolipoprotein A-I agonists and their use to treat dyslipidemic disorders” (priority 1997, dated 2004)
Square brackets hold non-standard residues; d marks the D form. Primed or numbered codes have the meaning given here. Ends that are not written are not given here. Nal″ = Z is Nal (naphthylalanine; Nal = Z in the sequences is Nal; Aib = CC(C)(N)C(=O)O

How the values were obtained:
[1] = Circular dichroism: degree of helicity; assay type: physicochemical; conditions: for He (%) TFE / He (%) free / He (%) mics / He (%) SUVs: percent helicity, 37° C.; for He (%) TFE: 5 μM peptide, 90% vol TFE; for He (%) free: unbound peptide, 5 μM in 5 mM phosphate buffer, pH 7.4; for He (%) mics: peptide-micelle complexes (1-myristoyl-2-hydroxy-sn-glycero-3-phosphatidyl choline, Ri=100); for He (%) SUVs: peptide-SUV complexes (20:1 EPC:Chol., Ri=50)
Method: Far UV circular dichroism spectra were recorded between 190 and 260 nm (in 0.5 nm or 0.2 nm increments) with a AVIV62DS spectrometer (AVIV Associates, Lakewood, N.J., USA) equipped with a thermoelectric cell holder and sample changer. The instrument was calibrated with (+)-10-[…]. Between one and three scans were collected for each sample, using 10 cm, 5 cm, 1 cm and 0.1 cm path length quartz Suprasil cells, respectively, for peptide concentrations of 10^−7 M to 10^−4 M. The bandwidth was fixed at 1.5 nm and the scan speed to 1s per wavelength step. The reported data are the mean of at least 2 or 3 independent measurements.
After background subtraction, spectra were converted to molar ellipticity (θ) per residue in […]. The peptide concentration was determined by amino acid analysis and also by absorption spectrometry on a Perkin Elmer Lambda 17 UV/Visible spectrophotometer when the peptide contained a chromophore (tryptophan, dansyl, naphthylalanine).
CD spectra were obtained with free, unbound peptide (5 μM in 5 mM phosphate buffer, pH 7.4); with peptide-SUV complexes (20:1 EPC:Chol., Ri=50); with peptide-micelle complexes (1-myristoyl-2-hydroxy-sn-glycero-3-phosphatidyl choline, Ri=100); and with free, unbound peptide in the presence of 2,2,2-trifluoroethanol (TFE) (5 μM peptide, 90% vol TFE).
The SUVs were obtained by dispersing the lipids (10 mM, 20:1 EPC:Chol., Avanti Polar Lipids, AL) in phosphate buffer (5 mM, pH 7.4) with bubbling N2 for 5 min., followed by sonication (1.5 hr.) in a bath sonicator. The homogeneity of the preparation was checked by FPLC.
The micelles were obtained by dispersing the lipid (6 mM 1-myristoyl-2-hydroxy-sn-glycero-3-phosphatidyl choline, Avanti Polar Lipids, AL) in phosphate buffer (5 mM, pH 7.4) with bubbling N2 for 5 min., followed by vortexing.
To obtain the peptide-SUV complexes, SUVs were added to the peptide (5 μM in 5 mM phosphate buffer, pH 7.4) at a phospholipid-peptide molar ratio (Ri) of […].
To obtain the peptide-micelle complexes, micelles were added to the peptide (5 μM in 5 mM phosphate buffer, pH 7.4) at a Ri of 100.
All spectra were recorded at 37° C. The stability of peptide 210 (SEQ ID NO:210) as a function of temperature (both free in buffer and in micelles) was determined by recording spectra at a series of different temperatures.
The degree of helicity of the peptides in the various conditions was determined from the mean residue ellipticity at 222 nm (Chen et al., 1974, Biochemistry 13:3350-3359) or by comparing the CD spectra obtained to reference spectra available on databases (16 helical reference spectra from Provencher & Glockner, 1981, Biochemistry 20:33-37; denatured protein reference spectra from Venyaminov et al., 1993, Anal. Biochem. 214:17-24) using the CONTIN curve-fitting algorithm version 2DP, CD-1 pack (August 1982) (Provencher, 1982, Comput. Phys. Commun. 27:213-227, 229-242). Acceptable fit was determined using the statistical analysis methodology provided by the CONTIN algorithm. The error of all methods was ±5% helicity.

[2] = Lipid binding by fluorescence spectroscopy; conditions: for I/Io: peptide 2 μM, 37° C.
Method: The lipid binding properties of the peptides synthesized in Section 6, supra, were tested by fluorescence measurements with labeled peptides, in the present case tryptophan (Trp or W) or naphthylalanine (Nal). The fluorescence spectra were recorded on a Fluoromax from Spex (Jobin-Yvon) equipped with a Xenon lamp of 150 W, two monochromators (excitation and emission), a photomultiplier R-928 for detection sensitive in the red up to 850 nm and a thermoelectric magnetic stirred cell holder. Quartz Suprasil cuvettes were used for measurements in the micromolar concentration range. A device of variable slits (from 0.4 to 5 nm) allows modulation of the incident and emitted intensities according to the concentration of peptide used. The reported values are in general the average of between 2 to 4 spectra. The peptide concentration is determined by absorption spectrometry on a Philips PU 8800 using the absorption band of the Trp (∈280 nm=5,550 M^−1 cm^−1 in Tris buffer) or the Nal (∈224 nm=92,770 M^−1 cm^−1 in methanol).
Fluorescence spectra of the peptides were recorded between 290 nm and 450 nm in Tris-HCl buffer (20 mM, pH=7.5), in the presence and absence of lipidic vesicles. The small unilamellar vesicles were formed after rehydration in buffer of the lyophilized phospholipids, dispersion and tip sonification under a N2 stream. The lipids used were either Egg PC/Chol. (20:1) or POPC/Chol. (20:1). The spectra were recorded at a peptide concentration of 2 μM and at a temperature of 37° C. The fluorescence reference standard in the case of Trp was N-acetyltryptophanylamide (NATA).
Lipid binding studies were done through progressive lipidic vesicle addition to the peptide in solution at 2 μM (slits:5 nm in excitation and 1.5 nm in emission). Dilution effects were taken into account for the fluorescence intensity determination. The lipid concentrations were varied from 10 to 600 μM and the molar ratio of lipid to peptide (Ri) was varied from 5 to 300. The wavelength of excitation was set at 280 nm for both Trp and Nal.
The data were directly recorded and treated by an IBM-PC linked to the spectrofluorimeter through the DM3000F software from Spex. The spectra were corrected by substraction of the solvent contribution and by application of a coefficient given by the constructor taking into account the variation of the photomultiplier response versus the wavelength.
The fluorescence spectra of the peptides were characterized by the wavelength at their maximum of fluorescence emission and by their quantum yield compared to NATA in the case of peptides labeled with a tryptophan. The process of binding to lipids was analyzed by calculating the shift of the wavelength at the maximum of fluorescence emission, (λmax), and the variation of the relative fluorescence intensity of emission versus the lipid concentration. The relative fluorescence intensity is defined as the following ratio: (I-I0)λmax/I0λmax. I and I0 are both measured at the (λmax) corresponding to the initial free state of the peptide i.e., without lipids. I is the intensity at a defined lipid to peptide ratio and I0 is the same parameter measured in absence of lipids. The absence of these variations is relevant to the absence of interactions of the peptides with the lipids.

[3] = EPC/Chol (20:1) small unilamellar vesicles

Substance	He (%) TFE [1] [%]	He (%) free [1] [%]	He (%) mics [1] [%]	He (%) SUVs [1] [%]	also measured
.klkgklaellenllerfldlvp [compound 107]	77	–	–	–	–
EWLEAFYKKVLEKLKELF* (Ac-EWLEAFYKKVLEKLKELF-NH2) [compound 239, reference compound]	–	44	49	–	–
GVLELFENLLERLLDALQKKLK [compound 145]	58	55	51	–	–
PVLDLFRELLEELKQKLK [peptide 210]	–	–	–	–	stability of the α-helical structure as a function of temperature ([1]; temperature range of 5°-45° C., data not shown): completely stable
PVLDLFRELLNELLEAZKQKLK (PVLDLFRELLNELLEA[Nal″]KQKLK) [peptide 10]	71	60	87	70	–
PVLDLFRELLNELZEALKQKLK (PVLDLFRELLNEL[Nal]EALKQKLK) [compound 27]	81	72	92	82	–
PVLDLFRELWEELKQKLK* (Ac-PVLDLFRELWEELKQKLK-NH2) [peptide 199]	–	–	–	–	lipid binding (burying of the tryptophan, fluorescence intensity exaltation) [2, 3]: binds very effectively; lipid to peptide molar ratio at which the burying of the tryptophan residue is maximal [2, 3]: about 100; I/Io ([2]; Lipid:Peptide Molar Ratio (Ri) 0): 0; λmax (nm) ([2]; Ri 5): 344 nm; I/Io ([2]; Ri 5): 8; λmax (nm) ([2]; Ri 10): 339 nm; I/Io ([2]; Ri 10): 8; λmax (nm) ([2]; Ri 30): 328 nm; I/Io ([2]; Ri 30): 18; I/Io ([2]; Ri 60): 22; λmax (nm) ([2]; Ri 100): 326 nm; I/Io ([2]; Ri 100): 27; λmax (nm) ([2]; Ri 200): 325 nm; I/Io ([2]; Ri 200): 41; λmax (nm) ([2]; maximum of tryptophan fluorescence emission, Ri 0 (in buffer, no lipid), 2 μM): 348 nm
PVLDLFRWLLNEXLEALKQKLK (PVLDLFRWLLNE[Aib]LEALKQKLK) [compound 108]	–	–	–	54	–
PVLDZFRELLNELLEALKQKLK (PVLD[Nal]FRELLNELLEALKQKLK) [compound 34]	62	58	67	68	–
pVLELFENLLERLLDALQKKLK ([dP]VLELFENLLERLLDALQKKLK) [compound 144]	95	89	88	–	–
pllellkellqellealkqklk ([dP][dL][dL][dE][dL][dL][dK][dE][dL][dL][dQ][dE][dL][dL][dE][dA][dL][dK][dQ][dK][dL][dK]) [compound 87]	100	100	–	–	–
pvldefreklneXlealkqklk ([dP][dV][dL][dD][dE][dF][dR][dE][dK][dL][dN][dE][Aib][dL][dE][dA][dL][dK][dQ][dK][dL][dK]) [compound 44]	–	20	86	–	–
pvldlfrellneXlealkqklk ([dP][dV][dL][dD][dL][dF][dR][dE][dL][dL][dN][dE][Aib][dL][dE][dA][dL][dK][dQ][dK][dL][dK]) [compound 96]	81	52	85	63	–
pvldlfrellnellealkqklk [compound 100]	98	83	92	–	–
